The series deals with the molecule itself. The series is described as follows: SEC-MALS. On the technique in general: SEC sorts molecules by how far they enter the pores of the column.

B1: CpMgm101-NoTag (untagged full-length mature Candida parapsilosis Mgm101) (natural protein, UniProt G8B839 30-266, looked up)
chain: VPKTASAKTTSKLAPSITTEDEVAEQDPSLQEPQSATSTASFAFHDAPPETRSVLNSSTNNNIDWSDSYHGLGSQPFSREIADILLAPIKDQDIEIKPDGLLYLPEIKYRRILNKAFGPGGWGLVPRTESLITKSQISREYGLICHGRLISIARGEQDYFGGEEKVTTALEGCKSNALMRCCKDLGIASELWDPGFIRKWKAKYCEEVFVEHVVNKKKKKLWKLKSNKKIEYPYKQL
Turning to B1, the “stoichiometry N” value was 3.

By stoichiometry N is commonly meant a count of units in the complex or per binding partner.

These data come from article PMC4797282 (Nucleic Acids Research, 2016).
